Test results reported in the nanobody polyreactivity screen of Harvey et al. (2022).

Test: yeast display, Sf9 membrane polyspecificity reagent, FACS + sequencing; frameworks hold sequencing errors
Outline: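 Using colony PCR, genes from sorted yeast display clones were amplified, then sequenced on MiSeq at 2 × 250 and filtered by CDR length. The clones had been stained with 10% biotinylated, detergent-solubilized Sf9 membrane reagent for 1 hour at 4 °C and sorted by FACS into low and high (top ~1%) gates on anti-HA and streptavidin fluorescence. Polyreactivity labels come from the gate of origin.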

Sequence | polyreactivity (PSR sort gate)
QVQLVESGGGLVQAGGSLRLSCAASGRTFYIYAMGWYRQAPGKERELVATIDSTGSTNYADSVKGRFTISRDNAKNTVYLQMNSLKPEDTAVYYCNADDWVGRSLRYDYWGQGTQVTVSS | low polyreactivity
QVQLVESGGGLVQAGGSLRLSCAASGRTFYIYTMGWYRQAPGKERELVATAITSGGITYYADSVKGRFTISRDNAKNTVYLQMNSLKPEDTAVYYCAADDYYGYYGFNYWGQGTQVTVSS | low polyreactivity
QVQLVESGGGLVQAGGSLRLSCAASGRTFYKNTMGWYRQAPGKERELVATIYQRGGSTYYADSVKGRFTISRDNAKNTVYLQMNSLKREDTAVYYCNARKYTQSIHYDYWGQGTQVTVSS | high polyreactivity
QVQLVESGGGLVQAGGSLRLSCAASGRTFYKYAMGWYRQAPGKERELVAAISGGGTTNYADSVKGRFTISRDNAKNTVYLQMNSLKPEDTAVYYCNAARTRWATGYDYWGQGTQVTVSS | low polyreactivity
QVQLVESGGGLVQAGGSLRLSCAASGRTFYKYGRGWYRQAPRKERELVASISSGGNTYYADSVKGRFTISRDNAKHTVYLQMNSLKPDASAVFYCAAVNYWPFYYYVYGYWGQGTQVTVSS | high polyreactivity
QVQLVESGGGLVQAGGSLRLSCAASGRTFYLYAMGWYRQAPGKERELVAAITKSGGSTYYADSVKGRFTISRDNAKNTVYLQMNSLKPEDTAVYYCATDGRWRLAGAFTGKRRTYDYWGQGTQVTVSS | low polyreactivity
QVQLVESGGGLVQAGGSLRLSCAASGRTFYLYAMGWYRQAPGKERELVDTITESVGNTYYADSVKGRFTISRDNAKNTVYLQMNSLKPEDTAVYYCAATYKYYLYQPKTLFREGDYWGQGTQVTVSS | low polyreactivity
QVQLVESGGGLVQAGGSLRLSCAASGRTFYLYAMGWYRQAPGTERELVADITSGGSTYYADSVKGRFTISRDNAKNTVYLQMNSLKPEDTAVYYCAADWVTFYSYTEYDYWGQGTQVTVSS | low polyreactivity
QVQLVESGGGLVQAGGSLRLSCAASGRTFYLYGMGWYRQAHGKETELVAAITLSDGSTYYADSVKGRFTISRDNAKNTVYLQMNSLKPEDTAVYYCAARDYPFPYAMNYWGQGTQVTVSS | low polyreactivity
QVQLVESGGGLVQAGGSLRLSCAASGRTFYNAMGWYIQAPGKERELVAAITTGGGTKYADSVKGRFTISRDNAKNTVYLQMHSLQPEDTAVYYCNTDAWYHFYHGAHKFDYWGQGTQVTVSS | low polyreactivity
QVQLVESGGGLVQAGGSLRLSCAASGRTFYNAMGWYRPAPGKERELVAAISGSGGSTYYADSVKGRFTISRDNAKNTVYLKMNSLKPEDTAVYYCAARSVWWQVSQGNYWGQGTQVTVSS | low polyreactivity
QVQLVESGGGLVQAGGSLRLSCAASGRTFYNNAMGWYRQAPGKERELVATINNRGGTTYYADSVKGRFTISRDNAKNTVYLQMNSLKPEDSAVYYCAKSAQRYSYRYYYWGQGTQVTVSS | high polyreactivity
QVQLVESGGGLVQAGGSLRLSCAASGRTFYNYAMGWYRQAHGKERELVAAIDWGSDSTYYADYVKGRFTISRDNANNTVYLQMNRLKPEDTAVYYCAAYLVSVNSRTYDYWGQGTQVTVSS | low polyreactivity
QVQLVESGGGLVQAGGSLRLSCAASGRTFYNYAMGWYRQAPGKEREFVAAISSSGGSTYYADSVKGRFTISRDNAKNTVYLQMNSLKPEDTAVYYCAAYYISFDYWGQGTKVTVSS | high polyreactivity
QVQLVESGGGLVQAGGSLRLSCAASGRTFYNYAMGWYRQAPGKERELVATINRGVSTNYADSVKGRFTISRDNEKNTVYLQMNSLKPEDTAVYYCAARKRPPYGYGYWGQGTQVTVSS | high polyreactivity
QVQLVESGGGLVQAGGSLRLSCAASGRTFYPNAMGWYRQAPGKERELVAAISWSGGSTYYADSVKGRFTISRDNAKNTVYLQMNSLKPEDTAVYYCNARYLYWALSYDYWGQGTQVTVSS | low polyreactivity
QVQLVESGGGLVQAGGSLRLSCAASGRTFYPNAMGWYRQAPGKERELVAAITRSGGRTYYADSVKGRFTISRDNAKNTVYLQMNSLKPEDTAVYYCNADLYYHYYKYEYWGQGTQVTVSS | low polyreactivity
QVQLVESGGGLVQAGGSLRLSCAASGRTFYPNTMGWYRQAPGKERELVATITRSGGNTYADSVKGRFTISRDNAKNTVYLQMNSLKPEDTAVYYCNADQRRSYWLVSQRYDYWGQGTQVTVSS | low polyreactivity
QVQLVESGGGLVQAGGSLRLSCAASGRTFYPNVMGWYRQAPGKERELVAAISRGGSTYYADSVKGRFTISRDNAKNTVYLQMNSLKPEDTAVYYCAATHYGHSISYWFDYWGQGTQVTVSS | high polyreactivity
QVQLVESGGGLVQAGGSLRLSCAASGRTFYPNVMGWYRQAPGKERELVAAITSGGSTYYADSVKGRFTISRDNAKNTVYLQMNSLKPEDTAVYYCAVAYAGGGSRKYDYWGQGTQVTVSS | low polyreactivity
QVQLVESGGGLVQAGGSLRLSCAASGRTFYPYAMGWYRQAPGKERELVAAIDYSSATTYYADSVKGRFTISRDNAKNTVYLQMNSLKPEDTAVFYCARVGIGVGWTKLNYWGQGTQVTVSS | low polyreactivity
QVQLVESGGGLVQAGGSLRLSCAASGRTFYPYAMGWYRQAPGKERELVAAISWNGGRTYYADSVKGRFTISRDNAKNTVYLQMTSLKPEDTAVYYCAADTAYYGFDYWGQGTQVTVSS | low polyreactivity

Sequence | polyreactivity (PSR sort gate)
QVQLVESGGGLVQAGGSLRLSCAASGRTFYPYAMGWYRQAPGKERELVARITSGGSTYADSVKGRFTISRDNAKNTVYLQMNSLKPEDTAVYYCNTDGYLLSRYPYSVQLYEYWGQGTQVTVSS | high polyreactivity
QVQLVESGGGLVQAGGSLRLSCAASGRTFYPYAMGWYRQAPRKERELVAAISRSGGSTYADSVKGRFTISRDNAKNTVYLQMNSLKREDTAVYYCATRRKTYLSFNYDYWGQGTQVTVSS | low polyreactivity
QVQLVESGGGLVQAGGSLRLSCAASGRTFYRNAMGWYKQAPGKERELVAAISRSGGSTYYADSVKGRFTISRDNAKNTVYLQMNSLKPEDTAVYYCNKRYPLGTEYYYWGLGTQVTVSS | high polyreactivity
QVQLVESGGGLVQAGGSLRLSCAASGRTFYRNAMGWYRQAPGKERELVAAISSDDSTNYADSVKGRFTISRDNAKNTVYLQMNSQKPEDTAVYYCNADYYYGYEYDYWGQGTQVTVSS | low polyreactivity
QVQLVESGGGLVQAGGSLRLSCAASGRTFYRNAMGWYRQAPGKERELVAAISSRGGSTYYADSVKGRFTISRDNAKNSVYLQMNSLKPEDTAVYYCAATYGYGGDYDYWGQGTQVTVSS | high polyreactivity
QVQLVESGGGLVQAGGSLRLSCAASGRTFYRNAMGWYRQAPGKERELVASIRRNGGSTYYADSVKGRFTISRDNAKNTVYLQMNSLKPEDTAVYYCAARSTRRRIYGYWGQGSQVTVSS | high polyreactivity
QVQLVESGGGLVQAGGSLRLSCAASGRTFYRNAMGWYRQAPGKERELVATITRGGSTNYADSVKGRFTISRDNAKNTVYLQMNSLKPEDTAVYYCAAAQPGTNAYRVGSWGQGTQVTVSS | high polyreactivity
QVQLVESGGGLVQAGGSLRLSCAASGRTFYRNAMGWYRQATGKERELVAAISRGDSTYYADSVKGRFTISRDNAKKTVYLQMNSLKPEDTAVYYCAKRARRIGDVNMGSWGQGTQVTVSS | low polyreactivity
QVQLVESGGGLVQAGGSLRLSCAASGRTFYRNTMGWYRQAPGKERELVAAITRSGGSTYYADSVKGRVTISRDNAKNTVYLQMNSLKPEDTAVYYCAASRTYYAPYGYWGQGTQVTVSS | high polyreactivity
QVQLVESGGGLVQAGGSLRLSCAASGRTFYRSALVWYRQAPGKERELVAAISYNGGSTFYADSVKGRFTISRDNAKYTVYLQMNSLKPEDTAVYYCAAGPRGTGKYYWGQGTQVTVSS | high polyreactivity
QVQLVESGGGLVQAGGSLRLSCAASGRTFYRYAMGSYRQAPGKEREFVAVISTDGSSTYYADSVKGRFTISRDNAKNTVYLQMNSLKPEDTAVYYCNKYVYGHKYGYRYSGVQDYYYWGQGTQVTVSS | high polyreactivity
QVQLVESGGGLVQAGGSLRLSCAASGRTFYRYAMGWYRQAPGKEREFVAAISNGGSNTRYADSVKGRFTISRDNAKNTVYLQMNSLKPEDTAVYYCAADYKRNQEVDYWGQGTQVTVSS | high polyreactivity
QVQLVESGGGLVQAGGSLRLSCAASGRTFYRYAMGWYRQAPGKERELVAAISSGGSTYYADSVKGRFTISRDNAKNTVYLQMNSLKPEDTAVYYCNADYGRRNHMDYWGQGTQVTVSS | low polyreactivity
QVQLVESGGGLVQAGGSLRLSCAASGRTFYRYAMGWYRQAPGKERELVAAISYSGGSTYYADSVKGRFTISRDNAKNTVYLQMNSLKPEDTAVYYCNARPVKASYVGYNYWGQGTQVTVSS | high polyreactivity
QVQLVESGGGLVQAGGSLRLSCAASGRTFYRYAMGWYRQAPGKERELVAAITTSGGSTYYADSVKGRFTISRDNAKNTVYLQMNSLKPEDTSVYYCSATYYGYHIRDDYWGQGTQVTVSS | low polyreactivity
QVQLVESGGGLVQAGGSLRLSCAASGRTFYRYAMGWYRQAPGKERELVASISSGGSTDYADSVKGRFTISRDNAKNTVYLQMNSLKPEDTAVYYCNAEIVGFWTSYDYWGQGTQVTVSS | low polyreactivity
QVQLVESGGGLVQAGGSLRLSCAASGRTFYRYAMGWYRQAPGKERELVASITRRGGNTYYADSVKGLFTISRDNAKNTVYLQMNSLKPEDTAVYYCAAQSLHPGNWGQGTQVTVSS | high polyreactivity
QVQLVESGGGLVQAGGSLRLSCAASGRTFYRYAMGWYRQAPGKERELVATINWTSGSTNYADSVKGRFTISRDNAKNTVYLQMNSLKPEDTAVYYCAARGPVGYGWRYRPWHDYWGQGTQVTVSS | high polyreactivity
QVQLVESGGGLVQAGGSLRLSCAASGRTFYRYAMGWYRQAPGNERELVAAISYSTTRTYYADSVKGRFTISRDNAKNTVYLQMNSLKPEDTAVYYCAAYGWTRFGYDYWGQGTQVTVSS | high polyreactivity
QVQLVESGGGLVQAGGSLRLSCAASGRTFYSNAMGWYRQAPGKERELVAAISRRGGRTYYADSVKGRFTISRDNAKNTVYLQMNSLKPEDTAVYYCAADAYLYQPEDYYYWGQGTQVTVSS | high polyreactivity
QVQLVESGGGLVQAGGSLRLSCAASGRTFYSNAMGWYRQAPGKERELVAAISSSGARTYYADSVKGRFTISRDNAKNTVYLQMNSLKPEDTAVYYCNAPTQYRYYWGQGTQVTVSS | high polyreactivity
